Results published in the supplement of paper PMC12764529.
± gives the half width of the 95% confidence interval.

How the values were obtained:
[1] = folding stability dG unfold (combined trypsin and chymotrypsin); higher = more stable
Method in brief: (§1)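 Sequencing followed digestion of designed mini-proteins with trypsin and chymotrypsin, each at 11 concentrations in threefold dilutions together with a no-protease condition. The mini-proteins were under 80 residues, had no cysteine, sat in a PA-tagged cDNA display construct, and were kept only if AlphaFold2 dimer inter-PAE was above 15. From the counts, Bayesian fitting gave K50, and unfolding free energy was derived against a sequence-predicted unfolded-state K50 and a shared folded-state K50, per protease or combined.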

[2] = folding stability dG unfold from chymotrypsin proteolysis; higher = more stable
Method in brief: as §1

[3] = folding stability dG unfold from trypsin proteolysis; higher = more stable
Method in brief: as §1

Row | Sequence | folding stability dG unfold [1] [kcal/mol] | folding stability dG unfold [2] [kcal/mol] | folding stability dG unfold [3] [kcal/mol]
1 | SAGGSAGGSAGMDIPLTFTAPNADGQPVKVRVEKIIPEKGYLLVRVEYPDDREETFLDPFSAGGSAGGSAGG [r11_742_TrMRF] | -0.0666 ± 0.08 | -0.167 ± 0.13 | -0.118 ± 0.14
2 | SAGGSAGGSAGMEFEVLEVIPPELLAEGGEITVGLPDGERLLVRVSPDGGVKEVRLLPPESAGGSAGGSAGG [r17_2_TrMRF] | 0.236 ± 0.16 | -0.435 ± 0.22 | 0.811 ± 0.12
3 | SAGGSAGGSAGMEISTKTLPGDKYELTITLPDSKGTPITVTITFTSEEEAKKKLEEIIKKSAGGSAGGSAGG [r11_819_JUSTAS] | 2.27 ± 0.084 | 2.7 ± 0.11 | 1.29 ± 0.068
4 | SAGGSAGGSAGMEITRDKTPDGVWTVTITVPRPDGPSITVTVTGSPDGDFAPEKIAAVLASAGGSAGGSAGG [r11_759_JUSTAS] | 0.819 ± 0.13 | 0.078 ± 0.19 | 1.15 ± 0.038
5 | SAGGSAGGSAGMELKIKVTLTPPGAPVPLTLELEVESEEEARERLEKEYPDREIELEVLESAGGSAGGSAGG [r17_428_JUSTAS] | 0.143 ± 0.093 | 0.354 ± 0.088 | -0.534 ± 0.072
6 | SAGGSAGGSAGMELTVKVPPDTTPEEVKEKIEKELGLKVKSISVSSFPDGTRTVTITIGPSAGGSAGGSAGG [r17_222_JUSTAS] | 2.45 ± 0.21 | 2.45 ± 0.14 | 2.45 ± 0.27
7 | SAGGSAGGSAGMEPEIYTITTTDSNGNTSSYTFTSTEEVNAFLNDPSFQSSAVSFTVSPTSAGGSAGGSAGG [r11_1047_JUSTAS] | 2.76 ± 0.076 | 2.88 ± 0.047 | 2.57 ± 0.053
8 | SAGGSAGGSAGMEPIRVTVTTQDTATGTTTTTTVTVPTDVPVEAVLAALDPALVTAVTVESAGGSAGGSAGG [r11_386_JUSTAS] | 0.808 ± 0.11 | -0.172 ± 0.072 | 1.68 ± 0.061
9 | SAGGSAGGSAGMETTVLEEVPPEELAKGQTRLEKLPDGTIIERTVAPEGEVVETKTIPPKSAGGSAGGSAGG [r17_2_JUSTAS] | 1.09 ± 0.48 | 0.421 ± 0.12 | 1.94 ± 0.21
10 | SAGGSAGGSAGMFVERTLEITFVRPPNGPGPEEVEKRAKELQEKNPHLNVKVKVVDPSEASAGGSAGGSAGG [r17_220_JUSTAS] | 0.699 ± 0.26 | 0.795 ± 0.1 | 0.669 ± 0.086
11 | SAGGSAGGSAGMIDIKFEKIEGSSEYRATLTRPGGEVVPVLFSSSESAEEAKERAIELLESAGGSAGGSAGG [r17_161_JUSTAS] | 1.15 ± 0.12 | 1.28 ± 0.11 | 0.906 ± 0.06
12 | SAGGSAGGSAGMIKIEETVVLPDGTVVRKEKEIEPPNGKTTTLKTETVPVLSPGSESLLLSAGGSAGGSAGG [r11_919_JUSTAS] | 0.461 ± 0.067 | 0.313 ± 0.074 | 0.429 ± 0.041
13 | SAGGSAGGSAGMIVAKVVEYDPETGEITIEVDGKKITLPLKNMKIKEVNGYLVIEFKEDDSAGGSAGGSAGG [r17_403_TrROS_Hall] | 3.25 ± 0.072 | 3.43 ± 0.082 | 2.89 ± 0.11
14 | SAGGSAGGSAGMIVIKNPETKEYYVIKFDGKEYVIELSEDELKELLEKLKGKDVEIKKLPSAGGSAGGSAGG [r11_57_TrROS_Hall] | 1.96 ± 0.2 | 1.93 ± 0.048 | 2.01 ± 0.16
15 | SAGGSAGGSAGMIVLFPLEEKKFIIYDPETGKVEEIEGTPEEVLEYAKKKYPDKEVYLLPSAGGSAGGSAGG [r11_614_TrMRF] | 5.15 ± 0.49 | 5.19 ± 0.3 | 3.25 ± 0.36
16 | SAGGSAGGSAGMKIEIELDENGELRIRITVYNKETKEEVEEFEFTLPLEELEEELRKLLESAGGSAGGSAGG [r11_376_TrROS_Hall] | 3.5 ± 0.22 | 3.62 ± 0.15 | 3.16 ± 0.12
17 | SAGGSAGGSAGMKIEYEHDPNRNWYTVKIDFPNGPPKIPIQVPHDDMPPNDLRDWAKELFSAGGSAGGSAGG [r11_557_TrROS] | 0.475 ± 0.28 | 0.58 ± 0.33 | 0.459 ± 0.12
18 | SAGGSAGGSAGMKIKFPNGKVVEIHMDEDSGNIEIEFPDGKKKEINIPGMSIDDILDYLKSAGGSAGGSAGG [r11_729_TrROS] | 1.59 ± 0.045 | 1.46 ± 0.033 | 1.56 ± 0.036

Row | Sequence | folding stability dG unfold [1] [kcal/mol] | folding stability dG unfold [2] [kcal/mol] | folding stability dG unfold [3] [kcal/mol]
19 | SAGGSAGGSAGMKKVLIIGGPKEELAKELKEKSPDIEVEFLDPSEDLEEYKKKFDIVIIESAGGSAGGSAGG [r17_225_JUSTAS] | 0.0867 ± 0.084 | 0.255 ± 0.072 | -0.387 ± 0.09
20 | SAGGSAGGSAGMKLPEGWEIVAVYRDKETNKLYLIVRDTKTKKLLIVDLDTKKIISAEELSAGGSAGGSAGG [r11_268_TrROS_Hall] | 4.06 ± 0.1 | 4.1 ± 0.13 | 3.63 ± 0.18
21 | SAGGSAGGSAGMKNKNYKVYTYKINIIDPGYENTTIIVEPNPAKPKAKPITIPIIIVEPASAGGSAGGSAGG [r11_257_TrMRF] | 0.797 ± 0.21 | 1.03 ± 0.18 | 0.57 ± 0.083
22 | SAGGSAGGSAGMKPDDTVTYTITVPHPESGEPLAEIELTYPVGTPIEKVKEEAKILAEKISAGGSAGGSAGG [r11_516_TrMRF] | 0.429 ± 0.088 | 0.141 ± 0.27 | 0.515 ± 0.03
23 | SAGGSAGGSAGMKTLKTTTKVFPGTGVIVTESLVEFPNGSLKKLTKVTYVKNPNPSTTLASAGGSAGGSAGG [r17_41_JUSTAS] | 0.602 ± 0.19 | 0.545 ± 0.14 | 0.474 ± 0.093
24 | SAGGSAGGSAGMKTRTITVSVSPEESEEEVRERVEAELPPGSVVEVTRLPDGTVVVTVEESAGGSAGGSAGG [r17_20_JUSTAS] | 1.55 ± 0.048 | 1.99 ± 0.035 | 0.401 ± 0.043
25 | SAGGSAGGSAGMKTVTETEFDPAAPVVTTTTSLVTLPPDGKPSITSTTTTTTAVAAPAAAASAGGSAGGSAG [r3_138_JUSTAS] | 1.03 ± 0.062 | 1.41 ± 0.038 | -0.0492 ± 0.05
26 | SAGGSAGGSAGMKVAVLTIPENGKPVLVVELPDGGALAFDPDTDAVFLLDDDKIYYLGPASAGGSAGGSAGG [r17_476_TrMRF] | 1.13 ± 0.075 | 1.52 ± 0.059 | 0.0117 ± 0.033
27 | SAGGSAGGSAGMKVEEVPETPVWRFTITRGKKTTIVEVEVPPDEPPDPAEVAAELGYELESAGGSAGGSAGG [r11_1053_JUSTAS] | 1.89 ± 0.25 | 1.65 ± 0.18 | 1.84 ± 0.075
28 | SAGGSAGGSAGMKVKTDPSSGPTVNKAYLENGTLILTTVTYDPSNGTTSTTTTVVPLSLLSAGGSAGGSAGG [r17_287_JUSTAS] | 0.823 ± 0.21 | 1.23 ± 0.22 | 0.433 ± 0.12
29 | SAGGSAGGSAGMLARITLSTPEKPVEYIVPESEVEEYIKKLNLPEDTEVTVTPVDPAALLSAGGSAGGSAGG [r17_395_JUSTAS] | 1.4 ± 0.037 | 1.8 ± 0.032 | 0.574 ± 0.022
30 | SAGGSAGGSAGMLPLEELLKKNPKPIKVLVKVGDTEYLVEVTPGEKKYTIKVKPLKKSKPSAGGSAGGSAGG [r11_549_TrMRF] | 1.41 ± 0.076 | 1.55 ± 0.047 | 1.08 ± 0.026
31 | SAGGSAGGSAGMPEKVTLTFERSSEVFDPKLGKWRTLPSTEVVEFDSEEEAEELKEKLGLSAGGSAGGSAGG [r11_984_JUSTAS] | 0.123 ± 0.31 | 0.575 ± 0.36 | -0.506 ± 0.55
32 | SAGGSAGGSAGMPKVEAVDISYSADPNSKSYTITIKSPDGEPIVLTLNSPSEIENLELVLSAGGSAGGSAGG [r11_711_JUSTAS] | 1.34 ± 0.13 | 1.34 ± 0.1 | 1.19 ± 0.026
33 | SAGGSAGGSAGMPLYIIEVEKEDGSKITITIPENMTEEEIKKIAEELGIKKVEIIKKEDLSAGGSAGGSAGG [r11_490_TrROS_Hall] | 1.84 ± 0.087 | 1.8 ± 0.053 | 1.91 ± 0.061
34 | SAGGSAGGSAGMRIVIEVPEDTTVEELAKKLADLGYEVEIRVERDENGRLLVVIEIRPKDSAGGSAGGSAGG [r11_1050_TrROS_Hall] | 2.8 ± 0.14 | 2.88 ± 0.12 | 2.66 ± 0.088
35 | SAGGSAGGSAGMRIVLRLPRDVPLEALRRELEALGGEVRIETEDDPDGRLLFVVELRPKESAGGSAGGSAGG [r11_1050_TrMRF] | 1.8 ± 0.14 | 1.81 ± 0.14 | 1.63 ± 0.061
36 | SAGGSAGGSAGMRKVVTGKEAVVKLTGIPPEVLEAMSEEELRALVAPLVEAGKVDEIELKSAGGSAGGSAGG [r11_80_JUSTAS] | 0.601 ± 0.13 | 0.898 ± 0.052 | -0.0624 ± 0.17
